The values that follow come from patent publication US20250154265A1.

Assay in all cases: cell-based or functional assay
The target in test [1] is EGFR L858R/T790M on H1975 cells (human) (UniProt P00533).
Test [2] concerns the target EGFR on H2073 cells (human) (UniProt P00533).
Test [3] concerns the target WT EGFR on HEKn cells (human) (UniProt P00533).
In test [4] the target is human cMET on cells (Hs746T, H596, EBC-1) (human) (UniProt P08581).
Chain of human cMET on cells (Hs746T, H596, EBC-1) (human) (P08581 25-1390 limits assumed): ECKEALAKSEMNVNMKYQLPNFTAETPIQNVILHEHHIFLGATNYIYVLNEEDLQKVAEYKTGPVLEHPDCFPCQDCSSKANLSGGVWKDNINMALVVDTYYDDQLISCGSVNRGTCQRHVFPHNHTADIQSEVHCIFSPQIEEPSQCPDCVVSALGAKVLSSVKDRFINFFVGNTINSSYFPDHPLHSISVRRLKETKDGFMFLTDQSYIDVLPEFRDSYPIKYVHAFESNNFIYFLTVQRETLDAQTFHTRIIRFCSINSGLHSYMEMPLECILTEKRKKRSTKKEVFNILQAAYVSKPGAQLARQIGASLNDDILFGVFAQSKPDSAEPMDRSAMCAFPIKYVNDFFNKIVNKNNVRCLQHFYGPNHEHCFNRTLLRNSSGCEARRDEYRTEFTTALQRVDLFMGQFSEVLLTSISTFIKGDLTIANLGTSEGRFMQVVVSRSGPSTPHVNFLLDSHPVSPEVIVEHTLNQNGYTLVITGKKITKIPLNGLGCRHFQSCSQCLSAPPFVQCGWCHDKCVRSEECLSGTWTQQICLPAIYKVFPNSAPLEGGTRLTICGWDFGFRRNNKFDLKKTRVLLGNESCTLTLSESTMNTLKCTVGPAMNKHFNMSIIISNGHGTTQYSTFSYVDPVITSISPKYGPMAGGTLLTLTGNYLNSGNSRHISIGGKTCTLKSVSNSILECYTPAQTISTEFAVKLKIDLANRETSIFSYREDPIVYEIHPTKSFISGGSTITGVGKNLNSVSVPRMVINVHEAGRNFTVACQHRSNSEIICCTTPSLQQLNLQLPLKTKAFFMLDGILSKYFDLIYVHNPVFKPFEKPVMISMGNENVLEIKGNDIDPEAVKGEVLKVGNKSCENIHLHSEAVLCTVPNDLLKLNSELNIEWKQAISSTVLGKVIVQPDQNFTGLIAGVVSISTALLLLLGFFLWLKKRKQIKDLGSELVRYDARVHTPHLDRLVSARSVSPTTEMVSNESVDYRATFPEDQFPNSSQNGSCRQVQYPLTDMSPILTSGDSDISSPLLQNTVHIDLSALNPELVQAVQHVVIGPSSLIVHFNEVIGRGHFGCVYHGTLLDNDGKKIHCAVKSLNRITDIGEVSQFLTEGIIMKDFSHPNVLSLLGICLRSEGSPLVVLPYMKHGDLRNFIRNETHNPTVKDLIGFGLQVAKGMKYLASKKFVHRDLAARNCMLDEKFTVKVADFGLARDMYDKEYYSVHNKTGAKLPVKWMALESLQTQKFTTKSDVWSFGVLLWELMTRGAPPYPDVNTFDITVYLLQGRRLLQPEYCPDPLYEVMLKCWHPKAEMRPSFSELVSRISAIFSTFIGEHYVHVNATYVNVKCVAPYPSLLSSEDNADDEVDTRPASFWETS

As to JNJ-372 (bispecific antibody), in test [1], the IC50, anti-proliferation on H1975 stood at 0.23 nM and the Imax (%), anti-proliferation on H1975 was determined as 58.4%. In test [2], the IC50, anti-proliferation on H2073 stood at 3.46 nM and the Imax (%), anti-proliferation on H2073 worked out at 83%. Moreover, in test [3], the IC50, anti-proliferation on HEKn cells is 5.7 nM and the Imax(%), anti-proliferation on HEKn cells was 33.5%. Further, in test [4], the Imax (%), anti-proliferation on EBC-1 was determined as 0% and the Imax (%), anti-proliferation on Hs746t came out at 0%.
LY3164530 (bispecific antibody): in test [3], the IC50, anti-proliferation on HEKn cells was found to be 0.24 nM and the Imax(%), anti-proliferation on HEKn cells amounted to 46.2%.
